The values that follow come from US20220144960A1 (NANJING LEGEND BIOTECH, published 2022).

Broadly, the Kd is a measure of binding affinity in units of concentration. The kon is the second-order rate constant of association. In general, koff refers to the rate constant with which the complex falls apart.

Changes are numbered by the printed parent chain.

T1: rhesus CD30 ECD (rhesus, UniProt P28908 19-379 (human entry))
T1 construct: Produced in house; also called recombinant rhesus CD30; rhesus CD30 protein
T1 chain: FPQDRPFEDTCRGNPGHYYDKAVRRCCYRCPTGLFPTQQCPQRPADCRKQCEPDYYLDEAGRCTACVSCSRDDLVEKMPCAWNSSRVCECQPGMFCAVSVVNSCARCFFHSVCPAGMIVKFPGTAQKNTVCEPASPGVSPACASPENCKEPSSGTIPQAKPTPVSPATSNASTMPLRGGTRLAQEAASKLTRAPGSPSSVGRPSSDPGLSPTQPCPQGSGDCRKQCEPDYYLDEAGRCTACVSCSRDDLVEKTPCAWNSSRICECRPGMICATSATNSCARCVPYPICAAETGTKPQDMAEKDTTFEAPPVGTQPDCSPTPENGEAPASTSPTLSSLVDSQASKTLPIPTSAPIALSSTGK

T2: recombinant human CD30 extra cellular domain (ECD) protein (human, UniProt P28908 19-379)
T2 construct: Bought from R&D systems; also called rhCD30; human CD30 ECD
T2 sequence: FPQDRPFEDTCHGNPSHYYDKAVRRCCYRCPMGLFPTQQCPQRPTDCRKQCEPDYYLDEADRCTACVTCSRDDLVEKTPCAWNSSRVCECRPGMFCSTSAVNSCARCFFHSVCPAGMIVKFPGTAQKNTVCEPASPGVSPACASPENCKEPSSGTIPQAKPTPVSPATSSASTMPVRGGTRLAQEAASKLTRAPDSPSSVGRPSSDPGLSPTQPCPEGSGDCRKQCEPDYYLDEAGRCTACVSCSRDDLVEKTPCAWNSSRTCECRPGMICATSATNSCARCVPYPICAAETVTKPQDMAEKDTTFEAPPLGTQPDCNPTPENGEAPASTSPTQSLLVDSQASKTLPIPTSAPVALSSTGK

B1: AS57765 human Fab (Fab, V domains shown)
VH: EVQLVESGGGLVQPGGSLRLSCAASGFNIYYSYMHWVRQAPGKGLEWVAYIYPYSGSTSYADSVKGRFTISADTSKNTAYLQMNSLRAEDTAVYYCARPAVHWHGYGGGYYYGLDYWGQGTLVTVSS
VL: DIQMTQSPSSLSASVGDRVTITCRASQSVSSAVAWYQQKPGKAPKLLIYSASSLYSGVPSRFSGSRSGTDFTLTISSLQPEDFATYYCQQAYYSLITFGQGTKVEIK
notes: Human Fab from a synthetic human Fab library, crude protein from E. coli with 6xHistidine tag
B2: AS57911 human Fab (Fab, V domains shown)
VH: EVQLVESGGGLVQPGGSLRLSCAASGFNISSSYIHWVRQAPGKGLEWVAYISSYYSYTYYADSVKGRFTISADTSKNTAYLQMNSLRAEDTAVYYCARGYPYGMDYWGQGTLVTVSS
VL: DIQMTQSPSSLSASVGDRVTITCRASQSVSSAVAWYQQKPGKAPKLLIYSASSLYSGVPSRFSGSRSGTDFTLTISSLQPEDFATYYCQQSHALITFGQGTKVEIK
notes: as for B1
B3: AS57659 human Fab (Fab, V domains shown)
VH: EVQLVESGGGLVQPGGSLRLSCAASGFNIYSYYIHWVRQAPGKGLEWVASIYSSYSSTYYADSVKGRFTISADTSKNTAYLQMNSLRAEDTAVYYCARSWFSYPGLDYWGQGTLVTVSS
VL: B2 VL with S91P, H92Y, A93Y
notes: as for B1
B4: 5F11 scFv (scFv)
scFv: DIQMTQSPTSLSASVGDRVTITCRASQGISSWLTWYQQKPEKAPKSLIYAASSLQSGVPSRFSGSGSGTDFTLTISSLQPEDFATYYCQQYDSYPITFGQGTRLEIKGSTSGSGKPGSGEGSTKGQVQLQQWGAGLLKPSETLSLTCAVYGGSFSAYYWSWIRQPPGKGLEWIGDINHGGGTNYNPSLKSRVTISVDTSKNQFSLKLNSVTAADTAVYYCASLTAYWGQGSLVTVSS
notes: Positive control; captured like the other fragments, tag not spelled out for it
B5: AS53574 sdAb (VHH)
VHH: QVKLVESGGGSVQAGGSLRLSCAASGYIYSSNCMGWFRQAPGKEREWVARIHTGSGSTYYADSVKGRFTISQDNAKNTVYLQMNSLRPEDTAMYDCAAGRVVLGAVVCTNEYWGQGTQVTVSS
notes: Camel sdAb
B6: AS53445 sdAb (VHH)
VHH: QVQLVESGGGSVQAGGSLRLSCTASGYIFCMGWFRQAPGKAREGIATIYTGGDSTYYDDSVKGRFTISRDNAKNTVYLQMNSLKPEDTAMYYCAAGGQECYLTNWVSYWGQGTQVTVSS
notes: Camel sdAb
B7: AS54233 sdAb (VHH)
VHH: QVQLVESGGGSVQAGETLRLSCTASGFTFDGPDMAWYRQAPGNECELVSIISADGRTYYTDSVKGRFTASQDNAKNTVSLYLKSLQPEDTAVYYCAADPRRNCRGNCCGNWGPGTQVTVSS
notes: Camel sdAb

In the first test the target is T3, human CD30 CRD1 (F19-Q68) Fc fusion protein with human IgG1 Fc fragment at the C terminus (human).
T3 construct: also called CRD1 construct
The test can be described thus: SPR, captured Fab, Fc-fused CRD protein as analyte. How it is done: (§1) Some of these unique binders were subjected to for further characterization by surface plasmon resonance (SPR) on a BIAcore T200 instrument (GE Healthcare). The experiment was carried out as follows. The crude sdAb/Fab proteins were captured through an affinity tag (6×Histidine tag) onto the sensorchip. High-concentration (100.0 nM) of human CD30 (R&D systems, Cat. #6126-CD) flowed over the sensorchip surface, and were allowed to bind the antibody fragments for 300 s followed by injection of the running buffer to allow dissociation of the complex. On-rate ([…] and off-rate (kd) were roughly calculated based on one association and dissociation curve, and were used to estimate the equilibrium dissociation constant (KD). 5F11 scFv (SEQ ID NO:216, prepared according to WO2017066122) was used as a positive control. Data were summarized in Table 3 below. The first 10 antibodies in Table 3 were sdAbs with amino acid sequence ID numbers summarized in Table 1, the last antibody was 5F11 scFv, and the remainings were human Fabs with CDR and scFv amino acid sequence ID numbers in Table 2.
(§2) Cysteine rich domains (CRDs) of human CD30 and the flanking residues, i.e., CRD1 (F19-Q68, SEQ ID NO: 3), CRD2 (R66-E107, SEQ ID NO: 4), CRD3 (E107-5153, SEQ ID NO: 5), CRD4 (E150-Q243, SEQ ID NO: 6), CRD5 (R241-E282, SEQ ID NO: 7) and CRD6 (E282-K379, SEQ ID NO: 8), were produced as Fc fusion proteins with human IgG1 Fc fragment (SEQ ID NO: 217) at the C terminus and used for epitope determination using SPR following the protocol similar to what was described above, only the analytes used were human IgG1 Fc-fused CRD proteins.
(In general: Surface plasmon resonance follows binding to a sensor surface in real time, without labels.)
As for B1, the binding result is reported as “no binding”.

With B2, the binding result was “no binding”.

As for B3, the binding result is recorded as “no binding”.

For the next test, the target named is T4, human CD30 CRD2 (R66-E107) Fc fusion protein with human IgG1 Fc fragment at the C terminus (human).
T4 construct: also called CRD2 construct
The test is described as follows: SPR, captured Fab, Fc-fused CRD protein as analyte. How it is done: as §1, §2
Regarding B1, the binding result is given as “no binding”.

As to B2, the binding result was “no binding”.

For the molecule B3, the binding result is listed as “no binding”.

Another test addresses T5, human CD30 CRD3 (E107-S153) Fc fusion protein with human IgG1 Fc fragment at the C terminus (human).
T5 construct: also called CRD3 construct
The test can be described thus: SPR, captured Fab, Fc-fused CRD protein as analyte. How it is done:
as §1, §2
Turning to B1, the binding result is reported as “no binding”.

Take B2: the binding result is listed as “no binding”.

In the case of B3, the binding result is reported as “no binding”.

The target of another test is T6, human CD30 CRD4 (E150-Q243) Fc fusion protein with human IgG1 Fc fragment at the C terminus (human).
T6 construct: also called CRD4 construct
T6 sequence (chain, as listed by the source limits assumed): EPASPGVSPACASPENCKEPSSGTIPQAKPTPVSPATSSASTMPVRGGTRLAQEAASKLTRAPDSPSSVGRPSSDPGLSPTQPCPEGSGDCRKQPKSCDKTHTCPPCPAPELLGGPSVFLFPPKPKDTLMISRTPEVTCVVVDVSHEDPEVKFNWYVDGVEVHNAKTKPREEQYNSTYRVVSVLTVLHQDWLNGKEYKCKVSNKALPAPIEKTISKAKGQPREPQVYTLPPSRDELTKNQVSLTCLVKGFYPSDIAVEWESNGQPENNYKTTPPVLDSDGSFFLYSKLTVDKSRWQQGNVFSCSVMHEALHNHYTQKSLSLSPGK
The test is described as follows: SPR, captured Fab, Fc-fused CRD protein as analyte. How it is done:
as §1, §2
With B1, the binding result is given as “no binding”.

Regarding B2, the binding result is “no binding”.

Take B3: the binding result is listed as “no binding”.

In the next test the target is T7, human CD30 CRD5 (R241-E282) Fc fusion protein with human IgG1 Fc fragment at the C terminus (human).
T7 construct: also called CRD5 construct
The test is described as follows: SPR, captured Fab, Fc-fused CRD protein as analyte. The method, then:
as §1, §2
With B1, the binding result was “no binding”.

Regarding B2, the binding result was “no binding”.

As for B3, the binding result is “no binding”.

A further test deals with T8, human CD30 CRD6 (E282-K379) Fc fusion protein with human IgG1 Fc fragment at the C terminus (human).
T8 construct: also called CRD6 construct
T8 sequence (chain, as listed by the source limits assumed): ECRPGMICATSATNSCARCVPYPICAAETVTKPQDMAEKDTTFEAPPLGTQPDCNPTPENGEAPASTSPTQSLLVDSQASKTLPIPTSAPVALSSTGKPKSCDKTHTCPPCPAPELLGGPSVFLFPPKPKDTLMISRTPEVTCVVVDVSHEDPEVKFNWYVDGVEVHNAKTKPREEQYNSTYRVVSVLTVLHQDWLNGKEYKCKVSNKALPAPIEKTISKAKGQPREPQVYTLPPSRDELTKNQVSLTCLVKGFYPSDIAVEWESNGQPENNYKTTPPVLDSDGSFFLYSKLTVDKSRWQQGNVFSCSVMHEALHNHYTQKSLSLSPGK
The test can be described thus: SPR, captured Fab, Fc-fused CRD protein as analyte. How it is done: as §1, §2
As to B1, the binding result is given as “no binding”.

B2: the binding result is given as “no binding”.

With B3, the binding result is reported as “no binding”.

In a further test the target is T8, human CD30 CRD6 (E282-K379) Fc fusion …. The test is described as follows: SPR, captured scFv, human IgG1 Fc-fused CRD protein as analyte. How it is done: as §1, with “2. […]” for “2.”
Turning to B4, the binding result is reported as “binds”.

A further test has as its target T1, rhesus CD30 ECD. The test is described as follows: ELISA on rhesus CD30 ECD protein; member of the group by paragraph 437. A general note: In an ELISA, binding on a coated surface is turned into a signal by an enzyme label.
Turning to B5, the binding result was “binds”.

Take B6: the binding result is recorded as “binds”.

In the case of B7, the binding result is on record as “binds”.

On to B1, for which the binding result is “binds”.

Consider B2, for which the binding result is given as “binds”.

Regarding B3, the binding result is listed as “binds”.

Another test addresses T2, recombinant human CD30 extra cellular …. The test is described as follows: SPR Biacore T200, scFv captured, 100.0 nM human CD30 as analyte, single curve. The method, then:
as §1
B4: the Kd was less than 0.1 nM.

Another test has the same target. The description is as above. The source holds these as a separate data set. How it is done:
as §1
Take B4: the Kd is less than 0.0862 nM and the kon was 120000 M⁻¹ s⁻¹.

The next test shares this target. The test can be described thus: SPR Biacore T200, His-tagged sdAb/Fab captured, 100.0 nM human CD30 as analyte, single curve. The method, then: as §1
B5: the Kd came out at 3 nM, the koff came out at 0.00021 s⁻¹, the kon came to 69000 M⁻¹ s⁻¹ and the “rhCD30 Binding (RU)” value was 569 RU.

For B6, the Kd came out at 80 nM, the koff was determined as 0.0085 s⁻¹, the kon amounted to 110000 M⁻¹ s⁻¹ and the “rhCD30 Binding (RU)” value came to 101 RU.

For the molecule B7, the Kd was found to be 76 nM, the koff is 0.0046 s⁻¹, the kon was 61000 M⁻¹ s⁻¹ and the “rhCD30 Binding (RU)” value was determined as 59.2 RU.

Turning to B1, the Kd came out at 11 nM, the koff was determined as 0.0011 s⁻¹, the association rate constant (kon) is 98000 M⁻¹ s⁻¹ and the “rhCD30 Binding (RU)” value stood at 37.7 RU.

As for B2, the Kd was 170 nM, the koff was 0.015 s⁻¹, the kon was 92000 M⁻¹ s⁻¹ and the “rhCD30 Binding (RU)” value is 44.6 RU.

B3: the Kd amounted to 27 nM, the koff was 0.0022 s⁻¹, the kon stood at 82000 M⁻¹ s⁻¹ and the “rhCD30 Binding (RU)” value was determined as 83.6 RU.

For another test, the target named is T3, human CD30 CRD1 (F19-Q68) Fc fusion …. The test can be described thus: ELISA on the CD30 fragment CRD1, absorbance OD 450 nm; sdAb concentration not given.
In the case of B5, the binding result is listed as “binds”.

In the case of B6, the binding result is “binds”.

Another test concerns the target T8, human CD30 CRD6 (E282-K379) Fc fusion …. The test is described as follows: ELISA on the CD30 fragment CRD6, absorbance OD 450 nm; sdAb concentration not given.
For B7, the binding result is “binds”.

The target of the next test is T2, recombinant human CD30 extra cellular …. The test is described as follows: SPR Biacore T200, scFv captured, 100.0 nM human CD30 as analyte, single curve; beyond off-rate detection limit. The method, then: as §1
As for B4, the koff is less than 1e-05 s⁻¹.
